Test results as given in PMC3905715 (Nature Communications, 2013).
Numbering of substitutions follows the chain as printed. Names and notes keep the numbering of the source. Values belong to the molecule of their own block, whether it stands above or below them.

T1: human LGR5 ectodomain (hLGR5ecto, R32-G557), immobilised for SPR (human, UniProt O75473 32-557)
T1 construct: LGR5 ectodomain, human, residues R32-G557; the methods describe biotinylated variants on streptavidin
T1 sequence (looked up): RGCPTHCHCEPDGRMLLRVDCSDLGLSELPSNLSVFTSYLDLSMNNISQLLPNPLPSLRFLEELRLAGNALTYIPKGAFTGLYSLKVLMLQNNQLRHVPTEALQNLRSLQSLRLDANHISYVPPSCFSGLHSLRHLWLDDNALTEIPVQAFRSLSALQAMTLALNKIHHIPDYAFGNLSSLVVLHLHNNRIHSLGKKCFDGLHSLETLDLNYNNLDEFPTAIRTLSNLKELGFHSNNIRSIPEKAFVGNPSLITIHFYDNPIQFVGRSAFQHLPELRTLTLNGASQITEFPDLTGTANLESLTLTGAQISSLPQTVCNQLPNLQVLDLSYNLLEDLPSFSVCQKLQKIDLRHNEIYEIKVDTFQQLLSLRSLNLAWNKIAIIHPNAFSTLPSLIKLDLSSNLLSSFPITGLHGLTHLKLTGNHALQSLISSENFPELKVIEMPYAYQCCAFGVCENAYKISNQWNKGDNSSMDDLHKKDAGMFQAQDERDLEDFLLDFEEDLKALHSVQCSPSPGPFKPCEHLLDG

T2: human LGR5 ectodomain (hLGR5ecto, R32-G557), immobilised for SPR (human, UniProt O75473 32-557)
T2 chain: T1 sequence (looked up)

T3: preformed hLGR5ecto,lr × mRspo2 Fu1–Fu2 complex, O75473
T3 chain 1: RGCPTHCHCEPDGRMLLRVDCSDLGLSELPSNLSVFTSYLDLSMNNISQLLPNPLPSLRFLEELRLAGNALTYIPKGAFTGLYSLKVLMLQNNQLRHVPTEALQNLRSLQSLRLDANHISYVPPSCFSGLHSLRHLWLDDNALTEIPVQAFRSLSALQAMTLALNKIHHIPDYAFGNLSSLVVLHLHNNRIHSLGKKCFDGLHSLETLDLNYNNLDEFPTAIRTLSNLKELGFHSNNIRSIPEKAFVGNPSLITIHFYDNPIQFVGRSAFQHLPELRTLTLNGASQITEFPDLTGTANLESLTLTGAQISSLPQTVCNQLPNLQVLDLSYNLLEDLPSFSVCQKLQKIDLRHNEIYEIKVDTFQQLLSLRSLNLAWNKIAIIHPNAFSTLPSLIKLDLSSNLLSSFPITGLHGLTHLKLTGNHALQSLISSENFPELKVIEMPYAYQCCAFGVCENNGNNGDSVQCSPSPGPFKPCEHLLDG
T3 chain 2: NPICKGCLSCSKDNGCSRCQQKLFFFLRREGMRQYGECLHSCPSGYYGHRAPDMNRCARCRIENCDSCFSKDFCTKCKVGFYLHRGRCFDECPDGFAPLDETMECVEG

T4: hRSPO3 (Homo sapiens (Human), UniProt Q9BXY4)
T4 chain: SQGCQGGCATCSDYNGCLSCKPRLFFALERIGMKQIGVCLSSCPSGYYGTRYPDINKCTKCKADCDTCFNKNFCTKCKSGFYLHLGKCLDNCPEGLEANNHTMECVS

T5: hRSPO1 (Homo sapiens (Human), UniProt Q2MKA7)
T5 chain: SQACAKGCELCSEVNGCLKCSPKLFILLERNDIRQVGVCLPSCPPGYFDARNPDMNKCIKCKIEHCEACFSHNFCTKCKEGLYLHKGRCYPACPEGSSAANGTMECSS

T6: mouse Rspo2 Fu1–Fu2 (mRspo2Fu1–Fu2, N37 or I39-G144), His10
T6 chain: T3 chain 2

T7: mZNRF3ecto M98T (Mus musculus)
T7 chain: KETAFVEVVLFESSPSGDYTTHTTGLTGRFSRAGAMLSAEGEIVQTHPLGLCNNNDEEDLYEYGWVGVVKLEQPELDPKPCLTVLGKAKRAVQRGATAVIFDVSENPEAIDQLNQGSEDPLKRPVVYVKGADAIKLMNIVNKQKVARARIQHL

B1: mouse Rspo4 Fu1–Fu2 (T29-Q136) (domain or fragment, UniProt Q8BJ73 29-136, looked up)
chain: TGLGGNCTGCVICSEENGCSTCQQRLFLFIRREGIRQYGKCVHDCPLGFFGIRGQEANRCKKCGATCESCFSQDFCIRCKRRFHLYKGKCLPSCPPGTLTHQSTRECQ
modifications: biotin at the C-terminal BirA recognition sequence (as immobilised ligand in Figure 4b)
notes: R-spondin 4, mouse, Fu1-Fu2, residues T29-Q136; also called mRspo4; mRspo4Fu1–Fu2
B2: human Rspo3 Fu1–Fu2 (R32-H147), immobilised for SPR (domain or fragment, UniProt Q9BXY4 32-147, looked up)
chain: RMHPNVSQGCQGGCATCSDYNGCLSCKPRLFFALERIGMKQIGVCLSSCPSGYYGTRYPDINKCTKCKADCDTCFNKNFCTKCKSGFYLHLGKCLDNCPEGLEANNHTMECVSIVH
modifications: biotin at the C-terminal BirA recognition sequence
notes: R-spondin 3, human, Fu1-Fu2, residues R32-H147; also called hRspo3
B3: mouse ZNRF3 ectodomain (K53-L205), biotinylated, immobilised for SPR, Q5SSZ7 E92N; E94T (protein)
chain: T7 chain with E40N, E42T, T46M
B4: mouse ZNRF3 ectodomain (mZNRF3ecto, K53-L205) (domain or fragment, UniProt Q5SSZ7 53-205, looked up)
chain: T7 chain with T46M
notes: ZNRF3 ectodomain, mouse, residues K53-L205; pHLsec vector; used for crystals, ultracentrifugation and as SPR analyte; also called wt mZNRF3_(ecto); source: HEK293T, secreted, purified (HisTrap, gel filtration)
B5: mouse ZNRF3 ectodomain (K53-L205), biotinylated, immobilised for SPR, Q5SSZ7 S90C (protein)
chain: T7 chain with S38C, T46M
B6: mZNRF3ecto S90C (spontaneously disulphide cross-linked dimer) (domain or fragment, mouse, UniProt Q5SSZ7 53-205, looked up)
chain: T7 chain with S38C, T46M
notes: ZNRF3 ectodomain, mouse; limits K53-L205 as stated for mZNRF3ecto; probably as m1; also called S90C variant of mZNRF3_(ecto); predimerized mZNRF3_(ecto) S90C
B7: human Rspo1 Fu1–Fu2 (I32-S143), immobilised for SPR (domain or fragment, UniProt Q2MKA7 32-143, looked up)
chain: ISAEGSQACAKGCELCSEVNGCLKCSPKLFILLERNDIRQVGVCLPSCPPGYFDARNPDMNKCIKCKIEHCEACFSHNFCTKCKEGLYLHKGRCYPACPEGSSAANGTMECS
modifications: biotin at the C-terminal BirA recognition sequence
notes: R-spondin 1, human, Fu1-Fu2, residues I32-S143; also called hRspo1
B8: human RNF43 ectodomain (hRNF43ecto, Q44-L188), biotinylated, immobilised for SPR, Q68DV7 K108N (protein)
chain: QKAIIRVIPLKMDPTGKLNLTLEGVFAGVAEITPAEGKLMQSHPLYLCNASDDDNLEPGFISIVNLESPRRAPRPCLSLASKARMAGERGASAVLFDITEDRAAAEQLQQPLGLTWPVVLIWGNDAEKLMEFVYKNQKAHVRIEL
B9: human RNF43 ectodomain (hRNF43ecto, Q44-L188), biotinylated, immobilised for SPR, Q68DV7 L82S (protein)
chain: B8 chain with L39S, N65K
B10: mR42 (protein)
chain: TGLGGNCTGCVICSEENGCSTCQQRLFLFIRREGIRQYGKCVHDCPLGFFGIRGQEANRCKKCRIENCDSCFSKDFCTKCKVGFYLHRGRCFDECPDGFAPLDETMECVEG
modifications: Chimera read from its name as Rspo4 Fu1 + Rspo2 Fu2. Junction not printed: set by convention after the residue aligned with Rspo2 R95. Disulphides
B11: mouse Rspo2 Fu1–Fu2 (mRspo2Fu1–Fu2, N37 or I39-G144), His10 (domain or fragment)
chain: T3 chain 2
B12: mouse Rspo2 Fu1–Fu2 (mRspo2Fu1–Fu2, N37 or I39-G144), His10 (domain or fragment)
chain: T3 chain 2
modifications: biotin at C-terminal BirA tag, immobilised; disulphide

Legend:
[1] = target: Rspo Fu1–Fu2 chimera: Fu1 of Rspo4 with Fu2 of a 'strong' Rspo (mouse | not stated); assay: SPR; binding of Rspo Fu1–Fu2 chimeras to ZNRF3ecto
[2] = target: T1, human LGR5 ectodomain (hLGR5ecto, …); assay: SPR; binding of Rspo Fu1–Fu2 proteins and chimeras to hLGR5ecto; single dilution series; settings: both partners purified
[3] = target: T2, human LGR5 ectodomain (hLGR5ecto, …); assay: SPR
[4] = target: B4; assay: SPR; mZNRF3ecto as analyte, biotinylated Rspo variants immobilised on streptavidin; equilibrium, 25 °C, 10 mM HEPES/NaOH pH 7.5, 150 mM NaCl, 0.005% Tween20; Biacore T200; settings: both partners purified
[5] = target: T3, preformed hLGR5ecto,lr × mRspo2 Fu1–Fu2 …; assay: SPR; settings: chain shown with the change
[6] = target: T1, human LGR5 ectodomain (hLGR5ecto, …); assay: SPR; hLGR5ecto (R32-G557) immobilised; injections of 10 μM solutions step by step, and saturation with the preformed mZNRF3ecto × mRSPO2 complex (single dilution series); settings: both partners purified
hRSPO3 = target: T4, hRSPO3; assay: SPR equilibrium, RSPO Fu1-Fu2 immobilised
hRSPO1 = target: T5, hRSPO1; assay: SPR equilibrium, RSPO Fu1-Fu2 immobilised
[7] = target: the molecule itself; assay: crystal structure; X-ray, sitting drop vapour diffusion; apo proteins and complexes in several crystal forms
[8] = target: T6, mouse Rspo2 Fu1–Fu2 (mRspo2Fu1–Fu2, N37 …); assay: SPR; settings: chain shown with the change
mZNRF3ecto M98T = target: T7, mZNRF3ecto M98T; assay: SPR

Kd [1]: 3600 nM
Molecule: mouse ZNRF3 ectodomain (mZNRF3ecto, K53-L205) (from UniProt Q5SSZ7 53-205) (domain or fragment)

Molecule: B1
binding result [2]: binds
Kd [3]: 73 nM
Kd [4]: 300000 nM

Molecule: B2
binding result [4]: binds

Molecule: B3
Kd [5]: 3500 nM

Molecule: B4
binding result [6]: binds
Kd (hRSPO3): 60 nM
Kd (hRSPO1): 6800 nM

Molecule: B5
Kd [5]: 206 nM

Molecule: B6
binding result [7]: binds

Molecule: B7
binding result [4]: binds

Molecule: B8
Kd [8]: 62 nM

Molecule: B9
Kd [8]: 78 nM

Molecule: B10
Kd [3]: 240 nM

Molecule: B11
Kd [3]: 14 nM

Molecule: B12
Kd (mZNRF3ecto M98T): 1500 nM
